Measurements from paper PMC10397247.

Legend:
Core_NNNN-es_KKEK = target: T1, Core_NNNN-es_KKEK; assay: two-hybrid library CCmax; conditions: mean of both orientations;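 note: natural log of median RNA to DNA barcode read ratio; higher means stronger binding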
T1 chain: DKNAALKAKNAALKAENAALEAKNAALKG

Core_NINN-es_KKEE = target: T2, Core_NINN-es_KKEE; assay: two-hybrid library CCmax; conditions: mean of both orientations;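 note: natural log of median RNA to DNA barcode read ratio; higher means stronger binding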
T2 chain: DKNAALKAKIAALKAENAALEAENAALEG

4H2608-AA = target: T3, 4H2608-AA; assay: two-hybrid library CCmax;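 note: natural log of median RNA to DNA barcode read ratio; higher means stronger binding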
T3 chain: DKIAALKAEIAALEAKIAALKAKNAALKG

4H2614-AA = target: T4, 4H2614-AA; assay: two-hybrid library CCmax; conditions: mean of both orientations;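 note: natural log of median RNA to DNA barcode read ratio; higher means stronger binding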
T4 chain: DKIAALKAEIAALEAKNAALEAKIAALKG

4H2726-AA = target: T5, 4H2726-AA; assay: two-hybrid library CCmax; conditions: mean of both orientations;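 note: natural log of median RNA to DNA barcode read ratio; higher means stronger binding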
T5 chain: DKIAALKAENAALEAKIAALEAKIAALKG

4H2935-AA = target: T6, 4H2935-AA; assay: two-hybrid library CCmax; conditions: mean of both orientations;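 note: natural log of median RNA to DNA barcode read ratio; higher means stronger binding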
T6 chain: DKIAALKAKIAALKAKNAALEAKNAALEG

4H327-AA = target: T7, 4H327-AA; assay: two-hybrid library CCmax; conditions: mean of both orientations
T7 chain: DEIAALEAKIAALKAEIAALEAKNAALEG

4H3605-AA = target: T8, 4H3605-AA; assay: two-hybrid library CCmax; conditions: mean of both orientations
T8 chain: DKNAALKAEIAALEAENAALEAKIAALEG

4H3625-AA = target: T9, 4H3625-AA; assay: two-hybrid library CCmax; conditions: mean of both orientations
T9 chain: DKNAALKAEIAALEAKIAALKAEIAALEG

4H3664-AA = target: T10, 4H3664-AA; assay: two-hybrid library CCmax; conditions: mean of both orientations
T10 chain: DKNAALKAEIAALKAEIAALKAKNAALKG

4H369-AA = target: T11, 4H369-AA; assay: two-hybrid library CCmax
T11 chain: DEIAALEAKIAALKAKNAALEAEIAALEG

4H3922-AA = target: T12, 4H3922-AA; assay: two-hybrid library CCmax; conditions: mean of both orientations
T12 chain: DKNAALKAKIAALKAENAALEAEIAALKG

4H4033-AA = target: T13, 4H4033-AA; assay: two-hybrid library CCmax; conditions: mean of both orientations
T13 chain: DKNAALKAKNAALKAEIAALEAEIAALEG

4H481-AA = target: T14, 4H481-AA; assay: two-hybrid library CCmax; conditions: mean of both orientations
T14 chain: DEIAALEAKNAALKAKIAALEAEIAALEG

4H55-AA = target: T15, 4H55-AA; assay: two-hybrid library CCmax; conditions: mean of both orientations
T15 chain: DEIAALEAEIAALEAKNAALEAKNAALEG

4H662-AA = target: T16, 4H662-AA; assay: two-hybrid library CCmax; conditions: mean of both orientations
T16 chain: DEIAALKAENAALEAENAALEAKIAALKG

Core_IIIN-es_EKEE = target: T17, Core_IIIN-es_EKEE; assay: two-hybrid library CCmax; conditions: mean of both orientations
T17 chain: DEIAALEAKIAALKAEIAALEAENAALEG

Core_NNNI-es_KEKK = target: T18, Core_NNNI-es_KEKK; assay: two-hybrid library CCmax; conditions: mean of both orientations
T18 chain: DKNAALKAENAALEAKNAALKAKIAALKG

4H19-bA = target: T19, 4H19-bA; assay: two-hybrid library CCNG1
T19 chain: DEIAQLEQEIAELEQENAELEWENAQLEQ

4H2696-bA = target: T20, 4H2696-bA; assay: two-hybrid library CCNG1
T20 chain: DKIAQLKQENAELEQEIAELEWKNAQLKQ

4H2883-bA = target: T21, 4H2883-bA; assay: two-hybrid library CCNG1
T21 chain: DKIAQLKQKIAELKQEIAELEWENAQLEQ

4H2937-bA = target: T22, 4H2937-bA; assay: two-hybrid library CCNG1
T22 chain: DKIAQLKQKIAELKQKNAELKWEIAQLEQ

4H2944-bA = target: T23, 4H2944-bA; assay: two-hybrid library CCNG1
T23 chain: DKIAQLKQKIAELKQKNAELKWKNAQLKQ

4H342-bA = target: T24, 4H342-bA; assay: two-hybrid library CCNG1
T24 chain: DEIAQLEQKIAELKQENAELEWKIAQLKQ

4H48-bA = target: T25, 4H48-bA; assay: two-hybrid library CCNG1
T25 chain: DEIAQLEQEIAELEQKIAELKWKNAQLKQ

4H491-bA = target: T26, 4H491-bA; assay: two-hybrid library CCNG1
T26 chain: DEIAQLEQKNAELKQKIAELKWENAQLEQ

Core_NNNN-es_KEKK = target: T27, Core_NNNN-es_KEKK; assay: two-hybrid library CCmax; conditions: mean of both orientations
T27 chain: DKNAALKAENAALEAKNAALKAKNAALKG

Core_IINN-es_KKEK = target: T28, Core_IINN-es_KKEK; assay: two-hybrid library CCmax; conditions: mean of both orientations
T28 chain: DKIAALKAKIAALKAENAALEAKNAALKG

B1: Core_NNNN-es_EEKE (peptide)
chain: DENAALEAENAALEAKNAALKAENAALEG
Core_NNNN-es_KKEK
  interaction score: 0.00657

B2: Core_NINN-es_EEKK (peptide)
chain: DENAALEAEIAALEAKNAALKAKNAALKG
Core_NINN-es_KKEE
  interaction score: 1.6

B3: 4H2608-AA (peptide)
chain: DKIAALKAEIAALEAKIAALKAKNAALKG
4H2608-AA
  interaction score: -0.193
4H2614-AA
  interaction score: -0.644
4H2726-AA
  interaction score: -0.998
4H2935-AA
  interaction score: -0.712
4H327-AA
  interaction score: 1.83
4H3605-AA
  interaction score: -0.648
4H3625-AA
  interaction score: 1.92
4H3664-AA
  interaction score: -0.787
4H369-AA
  interaction score: 0.124
4H3922-AA
  interaction score: -1.39
4H4033-AA
  interaction score: -0.845
4H481-AA
  interaction score: 1.33
4H55-AA
  interaction score: -0.255
4H662-AA
  interaction score: -1.55
Core_IIIN-es_EKEE
  interaction score: 1.53

B4: Core_NNNI-es_EKEE (peptide)
chain: DENAALEAKNAALKAENAALEAEIAALEG
Core_NNNI-es_KEKK
  interaction score: 2.11

B5: 4H19-bA (peptide)
chain: DEIAQLEQEIAELEQENAELEWENAQLEQ
4H19-bA
  interaction score: -0.446
4H2696-bA
  interaction score: -1.13
4H2883-bA
  interaction score: -0.0858
4H2937-bA
  interaction score: 1.86
4H2944-bA
  interaction score: 2.54
4H342-bA
  interaction score: -0.577
4H48-bA
  interaction score: -0.828
4H491-bA
  interaction score: -1.22

B6: Core_NNNN-es_EKEE (peptide)
chain: DENAALEAKNAALKAENAALEAENAALEG
Core_NNNN-es_KEKK
  interaction score: 0.346

B7: Core_IINN-es_EEKE (peptide)
chain: DEIAALEAEIAALEAKNAALKAENAALEG
Core_IINN-es_KKEK
  interaction score: 2.21
